The DeepSol protein solubility set

assay: soluble on expression in E. coli; label from the status in PepcDB or PDB records

Sequence	soluble on expression in E. coli
SLENYWVDERTLVVSGDFFGVSTGLLGGWKRVRHAFNHTVSEEFHSMEPAEYLRKVARGYGLKSYFGLLTSVPIEKLSVKGCGEVTVFATAGVMNPNERVGTINIIAVFECRMSRAAMLNAIITATEAKTKALLEEGHNFTGTNTDAVVVLCTQKGGYHRYCGPASEVGQKLWRCAGEAVKDSLARW	soluble
SLERLIRGMQYHYQWLTPFDAKRTTVVCLHGFTGTLATFAAVFPSQTPYNVLGIDLPGHGATASLVAPERYTMKQVCHDIAELTESLNLPCFCLLGYSMGARTALGFALHYPQKVQHLLLESGSPGLATAAERQARICQDHRLAERLLEEPLVDFIDFWQELPLFQTQKALSVAQQMAIRQERLSQSAFGLVSSLWYMGTGAQESYWERLAELQPIPTDLLVGGEDQKFIGIAKKMQARQPLLRLTIFPEAGHCIHLEQPTIFYEKVTALLEGAI	soluble
SLGWQISRFNRAFDTLCQQGRVGVGRSSGRFKPRVVVAIALDDQQRIVDTLFMKGLTVFARPQKIPAITGMHAGDLQPDVIFPHDPLSQNALSLALKLKRG	soluble
SLHRILLVDDEKDVGKIVSRLLAGDNYEIEQVTTGKEAMKRVLEESLPDIILLDINLPDIDGMDMLRDMKDAVRGTPIVMMTAYGSIETAVRSIKMGAMDFVQKPFNHYDFKRFINGVISARNIAGNDHCGIVGSSPQMKKVFRLVDKFALSDITILLQGESGTGKELFARAIHQKSKRRSGPFVPLDCAALSETLIESELFGHEKGAFTGATERKIGKFERAHGGTLFIDEVENLSSSNQAKLLRAVEEKQIERVGGTKAIKVDVRIVAASNIPLTEIINNGVFRKDLFYRFSQMTIAIPSLRDRVKDVDVLIRHFLAAYSEEFGNAANISEEALLLLNAYPWPGNVRELENVVKSAVILADGDILAKHLPEYIRKGSEG	soluble
SLKALWIYVGPVEDYGWTRAHHDGHMKARSKLGWLESSYIETVSEDKAYDVIKAQLDAEGYDAVFATSYGYMDALKRLATEYPDVKFYHCSGPWEEFRDLPNVSTYFAEFYQLYYLNGLAAAGATETCNLGYIPAFLIPEVVRHINAYVIGAVEGAKVLGKCGDGRNIRVLVTPPLNSWFAPDKARDAARLLVETYDVDVIAYTEDTTAVLETAESYWDQGVKVYSFSHYTDMYAYFKSQGKTLRSHLTGQIS	soluble
SLKIKQIVKPGLAVLAAGVLSACATKSNVKADGTTDNPVFPKPYSVTLDNNRGTFPTYDELDLMRPGLTKDDIYKILGRPHYDEGMYGVREWDYLFHFHTPGVGIDPENTSGVEGITTCQYKIIFDKDKFARSFYWNPVFPKDAACPPPAPKAEPQVIIREIVPAKPKRIRQ	soluble
SLKITDDCINCDVCEPECPNGAISQGEEIYVIDPNLCTECVGHYDEPQCQQVCPVDCIPLDDANVESKDQLMEKYRKITGKA	soluble
SLKRIDWNIQYLSLPPVIKHCKKCGKKTEFICSGMFRINAQRKYLDVWLIYKCSNCNSTWNMTIYTRVKPKSIEPKLLEAFHNNDKELAERYAVNLELIRKNGVELGYTKYKIIGEDINFRIPVELHIKSTYPSQLKVAALIREKLNLSQSSFESLITKGLIRGDTEINLKKCRLRTEVIVIIDSLDWSEVAFALAL	soluble
SLLASTRHIARGDTGNVSVRIRRVTTTRAGGVSAPPFDTFNLGDHVGDDPAAVAANRARLAAAIGLPGNRVVWMNQVHGDRVELVDQPRNTALDDTDGLVTATPRLALAVVTADCVPVLMADARAGIAAAVHAGRAGAQRGVVVRALEVMLSLGAQVRDISALLGPAVSGRNYEVPAAMADEVEAALPGSRTTTAAGTPGVDLRAGIACQLRDLGVESIDVDPRCTVADPTLFSHRRDAPTGRFASLVWME	not soluble
SLLDTLLINIGQLLTMDQEDGLLRREAMNTLPVIENGAVGIENGVITFVGTAEEAKGLQAKEVIDCGGKMVSPGLVDPHTHLVFGGSRENEIALKLQGVPYLEILEQGGGILSTVNATKQSSKEELVQKAKFHLDRMLSFGVTTVEAKSGYGLDDETEWKQLEATAQLQKEHPIDLVSTFLGAHAVPKEYKGRSKEFLQWMLDLLPEMKEKQLAEFVDIFCETGVFSVEESKEFLLKAKELGFDVKIHADEIDPLGGAEAAAEIGAASADHLVGASDKGIEMLANSNTVATLLPGTTFYLNKESFARGRKMIDEGVAVALATDFNPGSCPTENIQLIMSIAMLKLKMTPEEVWNAVTVNSSYAINRGDVAGKIRVGRKADLVLWDAYNYAYVPYHYGVSHVNTVWKNGNIAYTRGEQSWSTATI	soluble
SLLDVAVSPDDRFILTADRDEKIRVSWAAAPHSIESFCLGHTEFVSRISVVPTQPGLLLSSSGDGTLRLWEYRSGRQLHCCHLASLQELVDPQAPQKFAASRIAFWCQENCVALLCDGTSVVYIFQLDARRQQLVYRQQLAFQHQVWDVAFEETQGLWVLQDCQEAPLVLYRPVGDQWQSVPESTVLKKVSGVLRGNWAMLEGSAGADASFSSLYKATFDNVTSYLKKKEERLQQQLEKKQRRRSPPPGPDGHAKKMRPGEATLSC	soluble
SLMVLAMESRVAPEIPGLIQPGNVTQDLKMMVCKLLNSPKPTKTFPGSQPVSFQHSDVEEKLLAHDYYVCEKTDGLRVLMFIVINPVTGEQGCFMIDRENNYYLVNGFRFPRLPQKKKEELLETLQDGTLLDGELVIQTNPMTKLQELRYLMFDCLAINGRCLTQSPTSSRLAHLGKEFFKPYFDLRAAYPNRCTTFPFKISMKHMDFSYQLVKVAKSLDKLPHLSDGLIFTPVKAPYTAGGKDSLLLKWKPEQENTVDFKLILDIPMVEDPSLPKDDRNRWYYNYDVKPVFSLYVWQGGADVNSRLKHFDQPFDRKEFEILERTYRKFAELSVSDEEWQNLKNLEQPLNGRIVECAKNQETGAWEMLRFRDDKLNGNHTSVVQKVLESINDSVSLEDLEEIVGDIKRCWDERRANMAGGSGRPLPSQSQNATLSTSKPVHSQPPSNDKEPKYVDEDDWSD	soluble
SLNTPFSIDEVSFRDLPGWGQDDPRKLFPAMATILSHLRNAKPYRTGALGITAAELVSLLELAERGQVNSPEQARQFFETNSVPFRISPAQGKSGFVTAFYEPELEVSATPDDVWRYPIYRRPPELVDIDNDNRPDGFDPSYAFGKADEEGISYFPDRRAIDEGCLRGRGLEIAWARSKVDLFFVHVQGAARLVFPDGAIKRITYAAKAGHVFSPIGRLLLDRGELDPKTISMQTIRQWLADHPDEVDGVLWHNRSYIFFREADVAGLDMGPIAAAKVPLVAGRALAVDRLIHTFGLPFFIHAPTLTHLDDGKPFARLMLALDTGSAIVGPARGDIFTGSGFEAGELAGTVRNEADFYILLPRIAAERYRR	not soluble
SLQETTAQEQKVGNYALGPEGLKKALAETGSHILVMDLYAKTMIKQPNVNLSNINLGSEGGELLKNIHLNQELSRINANYWLDTAKPQIQKTARNIVNYDEQFQNYYDTLVETVQKKDKAGLKEGINDLITTINTNSKEVTDVIKMLQDFKGKLYQNSTDFKNNVGGPDGKGGLTAILAGQQATIPQLQAEIEQLRATQKKHFDDVLAWSIG	soluble
SLRIEHFETISCDAGWRNYYFLKVVTSDGIVGWSEYDESFGPPGLTAVIEQLGARLVGKSVYDHEEAYGRLAASLRPAPYGLSAEAIGAIENALLDAKAKSLGLPVYQLLGGKHRGSIPIYWSHCATWRISHPNLYPPAIVDLDGVKKAGEDARKSGISALKTNLFINENGKPRQWMAGFGSPYAPSLNVDKALLRNLRAHLEALRDGAGPDVDILVDLNFNARTEGYLSLINAIKDFDLFWVELDIYNPDAMAYIRQRSHAPIAACETLFGIRQFLPYFQAQSMDVAIVDAVWNGVWQAMKIASVADAFDVNIAPHNFYSHLSTMMNVHFAAAVPNLRVMEVDVDRLAWDDQLFTRTPEIVNGAIQVPDAPGWGCDPIEEALRAHPPQVRRSHLGL	soluble
SLRVMLPNKKALEIIRKYMKIYNGKNEKDIKERLIKELKEEHVLVETEDGTYTLKAEDEEEMMHSKVGALKEAIYKFAKPSKITDLSNPRVLDLCSGMGYNAIAALHYNKNAEIDMVEICEEVLFLTLFLDIPYKEHEIIKDKVREYFLNKIGIEYKSDYDNINLYVGDARKFIIKSDKKYNVVFHDAFSPKRDPTLYTYDFLKEIYKRMEDNGVLISYSSAIPFRSALVDCGFVISEKESVGRKRGITLAYKNPNFKPNRINEVDERVIALSVIALPYRDETLSLTKDKIIEDREERREKLKEKLIKIGKYLSTKQIKKGNIPEEILKIQKEDLNSSEIIKKMRLKFFKDANIFIL	soluble
SLRVSASMSLVVLTFLLTCFMVRPMTAVTSDPLDFHWPGSRILAVGDLHGDIGNTMLLLYGAGVVDEDGNWIAGDTLLIQTGDVVDRGPDGKRIYDYFASLSAQATEQGGKIIQLLGNHDVMNICGDFRYAHPSETIEFGGALERRRQFMDGGHYGNMLRSFPLSIKANGVIFSHAGIPSDFAVLGLSKLTQQLREELANDCKLHNSRFYNEAMGSSTGDLFVAGSQGPLWTRVYSMGQMTKICEELDKTLGILDSEKMVIGHTVQESGNIEVYCGGRLLLIDTGVSRYVADSPRMLEIRDGTFFEWRLDISKQGTDSEPNVRGSKRQLNIPPLKN	not soluble
SLSIDEIKQLIELIDESTLDEFELETKDSKILLKKHKTVVATAVQEAPIAVTPAQTAPVTPAAAPQVEASTAEDVNLEVITSPMVGTFYASASPEDANFVSVGSKVSAQSVVCIVEAMKLFNEITADIDGEIAEILVSSGELVEFGQPLFKVRKK	soluble
SLSSKDKDTVKALWGKIADKAEEIGSDALSRMLAVYPQTKTYFSHWKDLSPGSAPVNKHGKTIMGGIVDAVASIDDLNAGLLALSELHAFTLRVDPANFKILSHCILVLLAVKFPKDFTPEVHISYDKFFSALARALAEKYR	soluble
SLSSTQSVNSVLAPGNLRKVHHIALNVQDMQASRYFYGTILGLHELTDDEVPATLTELVASGKVANFITPDGTILDLFGEPELSPPDPNPEKTFTRAYHLAFDIDPQLFDRAVTVIGENKIAIAHGPVTRPTGRGVYFYDPDGFMIEIRCDPEAEG	soluble
SLTRPNTDYSCGGFLSQPSGDFSSPFYPGNYPNNAKCVWDIEVQNNYRVTVIFRDVQMEGGCNYDYIEVFDGPYRSSPLIARVCDGARGSFTSSSNFMSIRFISDHSITRRGFRAEYYSSPSN	soluble
SLTRRADDGPLVLTGANAPMSATTASGQADASFFDPGLLRRFGITRVGDVTGLDIIGIPVWFAARPNSRGLSVSQGKGLFADQARLSAIMEAIEGAVAEETRRHVTAFGSIEEMRNKGVPLIPFETVGRIDPDALDLRKERAWVKGTSIRQQQEVFAPYELIGMDFRAEFPWDRQAFRMSSQGLAAGFEQDHAVLHALLELIENDASFLVDTFETRAITPQPFLLSAGMDSLLDDLIQHLSNIGLPPSFFDLTNALGVPVVMASLPRSLQAEDGPATRSAAGAACRPNTHAAAMAALLEAIQSRLTDISGARDDLSPLRYQRDLSTSGPTASRAQPLRQMPADLNFPESDLSLPPWRQLAEHLFARGIEDIHVFPLETEVSGLHVVRILASGLAPAGGGLQHISPRTLDHLLNLGGT	soluble
